This note sets out measurements from the DeepSol protein solubility set.

A short description of this data set: soluble on expression in E. coli; label from the status in PepcDB or PDB records.
Take “MGSDKIHHHHHHMEFLRNTWYAAGWSQDLAAGAMLGRTMLNEQLVLFRADDGTVSALSDICPHRFAPLHLGKIVDGCRIQCAYHALEFDGTGACVKNPHGKQKIPAAAKLQAYPVVEKHSLIWVWMGEQAAADPSVIPDFSMLDPDSGFQVSRRDWLHMDASYDLVVDNLMDLSHTAFLHDGILGSKYTIKADTSLEQTGETVKVTRLMPNVPVPGFFDLMFNRDGGIVDYWTEIRWNLPGCLMNNTGVTLPGAPRSEGTGVYGMHFLTPETDVSCWYHFAAVRQNPRTWGEPIDTEIKEKISDLRRYAFEEQDQWIIKAQQQTILRAKGNLQPVSLETDIGIERYKRILKAALVAERSGSTMAA”: the “soluble on expression in E. coli” value is “not soluble”.
For the sequence “MPVNSILGVFAKSPIKPLQEHMDKVYDCASLLVPFFEATITGNWDDAVQIRKQISLAEKQGDSLKREIRLTLPSGLFMPVERTDLLELLTQQDKIANKAKDISGRVIGRQLLIPQALQVPFIAYLQRCIDAVGLAQQVINELDDLLEAGFRGREVDFVAKMINELDIIEEDTDDLQIQLRRQLFALESELNPVDVMFLYKTIEWVGGLADLAERVGSRLELMLARVLEHHHHHH”, the “soluble on expression in E. coli” value is given as “soluble”.
As for “MSAEMTVEGMISVFMKIRKVYADEFGRMLGNETYSPNEISILLFLANNPSIDTNSQLCTCLGVSKALVCRSVDALLGKEMIISVADDHDKRVQHLKLTEHALPVIEQLGGIKRKIDQEILEGIPEEDIANMANTMEKIFARFEERAKGKESSL”, the entry is “not soluble”; as for “MGGDFGPSVTVPAALQALNSNSQLTLLLVGNSDAITPLLAKADFEQRSRLQIIPAQSVIASDARPSQAIRASRGSSMRVALELVKEGRAQACVSAGNTGALMGLAKLLLKPLEGIERPALVTVLPHQQKGKTVVLDLGANVDCDSTMLVQFAIMGSVLAEEVVEIPNPRVALLNIGEEEVKGLDSIRDASAVLKTIPSINYIGYLEANELLTGKTDVLVCDGFTGNVTLKTMEGVVRMFLSLLKSQGEGKKRSWWLLLLKRWLQKSLTRRFSHLNPDQYNGACLLGLRGTVIKSHGAANQRAFAVAIEQAVQAVQRQVPQRIAARLESVYPAGFELLDGGKSGTLR”, “soluble”; as for “MSLQNAKLMLTCLAFAGLAALAGCSFPGVYKIDIQQGNVVTQDMIDQLRPGMTRRQVRFIMGNPLIVDTFHANRWDYLYSIQPGGGRRQQERVSLFFNDSDQLAGLNGDFMPGVSRDEAILGKEGSTTVTQPADQQKPEAQKEEPPKPGSTLEQLQREVDEAQPVPVPTPEPLDPSPQEGHHHHHH”, “soluble”.
As for “MKIRVVSSKEEIDTLKLNEEIVHLAFRPSNKDIFKLILKCPEVKAIHIPSSYKRTISSSAQMYLSMQNIALLEGDVWGHRKDINEYSEVSEHVFDRIKELKEEGLSDEDTIEKLVRETRLSPDFVTFIISN”, the entry is “not soluble”.
For the sequence “MSNEKFNNVPKPAGNGPHTPEDHAIKGELTFEDKVVQKIIGLALENVDGLLTVDGGFFSNIAEKLVNTDNVTAGIDTEVGKKQVAVDMDIVVEYGKDIQDIYEKMKELISREVKKMTHLDVIEVNVNVVDIKSKEEYEEDSETVQDKVTGAAKSTGEFASEQTEKAKKAVNKGTEQVKENMEPRVELEHHHHHH”, the “soluble on expression in E. coli” value is reported as “soluble”.
Take “AHHHHHHGSNQLEAVREKLRVIRMLRVLKKTYTYEDLSEITGLPVTVLNRYVKGKVLPSVERARELFEKLSPYLNLEEEVKKRLRFDSHGFFDSMSVLSDTNLLALISEDVALKYMKVGVEKILTAATDGIPLAVQIANELGVDVVYAKKKKEVGVERFYEVNYIPSASGSITTLYLPTWALKKGERVLIVDDVVRSGETQRALVELCRQAGAIPVGMFFLISVGDIVERLKEEYNIPVEALVNL”: the “soluble on expression in E. coli” value is recorded as “soluble”.
As for “MALQVASAPHGSSEDSTSASLPANYPYHTRMRRNEYEKAKHDLQIELLKVQSWVKETGQRVVVLFEGRDAAGKGGTIKRFMEHLNPRGARIVALEKPSSQEQGQWYFQRYIQHLPTAGEMVFFDRSWYNRAGVERVMGFCSPLQYLEFMRQAPELERMLTNSGILLFKYWFSVSREEQLRRFISRRDDPLKHWKLSPIDIKSLDKWDDYTAAKQAMFFHTDTADAPWTVIKSDDKKRARLNCIRHFLHSLDYPDKDRRIAHEPDPLLVGPASRVIEEDEKVYAEAAAAPGHANLDIPA”, the “soluble on expression in E. coli” value is on record as “not soluble”.
As for “MATLTEDDVLEQLDAQDNLFSFMKTAHSILLQGIRQFLPSLFVDNDEEIVEYAVKPLLAQSGPLDDIDVALRLIYALGKMDKWLYADITHFSQYWHYLNEQDETPGFADDITWDFISNVNSITRNATLYDALKAMKFADFAVWSEARFSGMVKTALTLAVTTTLKELTP”, the entry is “soluble”; as for “MSTTFAARLNRLFDTVYPPGRGPHTSAEVIAALKAEGITMSAPYLSQLRSGNRTNPSGATMAALANFFRIKAAYFTDDEYYEKLDKELQWLCTMRDDGVRRIAQRAHGLPSAAQQKVLDRIDELRRAEGIDA”, “soluble”; as for “MGSDKIHHHHHHMSFDPFGDFETTGYLRNSLGLKDPAEVKENEHFSFEMGLDEALSYLERTKNLNYQALLQVHRLLFEKFYPWAGRDRLELVPHLSVWKGPKGAPRRTFFESPAMIERAVDYALSLASKKQGFMQKPGEVMGLLCFAHPFLDGNGRSILLFYMELSYRAGFAIDWASTRKDDYLQALDDEIHNPGKGHLDRYLVPFVVPIHSRDQWPEIIGQINGLDGMDGENITYENLDDPEVQKVYAAYHAEHPYPAKDGTPDSEP”, “not soluble”.
As for “MKYGIVIFPPKRIQDFANSYRKRYDSHYALIPPHITLKYPFEADEEQIKKMAKELRRIAAETPPIPIKVTKFSSFYPTSNIIYLKVEPNDVLERLHEQLHSGLFAGKPEFVFVPHITIGRDLPGAEYADVYSQLKLQDVHFEETVDRFHLLYQLENGSWTVYETFIVGGKETV”, the entry is “soluble”; as for “KLIAATGCPTGIAHTFMAQEALEQAAKEKGVSIKVETHGQVGVENELTPAEIAGAKAVIIAADKDVQAERFAGKRVIEVSVADGIKKADQLIADALAGKGQIK”, “not soluble”.
For the sequence “MKSRLPFRYLEPTFCAGLLDDPVLLVNVRPLGRSILVDCGQIHHLAKRVLKSIDAVFVSHAHMDHFMGLDTLVRHIHVSPRTVELFGPPGIARKVAAKLAGYDWNLTESYWCTFRVSEVHPERIVRFTFPGSEGFPCLPEEETTREGTEIFRNDFLAVDADLCDHNTLPTLVFRITERPTFWIDEAKVDQEGLVPGEWLRELKHRFYRGRLDGKTITVPVRTAGDTVAQRIREGRELFEAIRRSQEPASIGYLTDIGAGDTNLATVRRLLAGVTLLACECSFLAADVAKARTSHHLCTADVSALAREIRPGWLLPMHLSKSYNTKGHLLYRELTLAPETRLIRLPEHLTPRPLLPGEFPGLWKIAEMAGDPNSLEHHHHHH”, the “soluble on expression in E. coli” value was “not soluble”.
With “MSKQAFQKIYTKITNITKATCSLRATGVGNEELATIDGRLAQVVRIQGEDVTLQVFAGTEGIPTDAEVIFMGKAPSLKVGDQLAGRFFNAYGEPIDGGPQPEGKEVEIGGPSVNPVRRKQPSELIATGIAGIDLNNTLVTGQKIPFFADPDQPFNQVMAMVALRAESDKIILGGMGMTNDDYLFFKNTFSNAGALDRIVSFINTTEDPSVERILVPDMALAAAEYFAVEKHEKVLVLLTDMTNYADALAIVSNRMDQIPSKDSMPGSLYSDLAKIYEKAVQFPDGGSITIIAVTTLSGGDITHAVPDNTGYITEGQLYLRRDSNVGKVIVDPFRSLSRLKQLVIGKKTREDHPQVMNAAVRLFSDAANAQTKMENGFDLTDYDNRALEFANDYSRQLLAIDVNVNTTEMLDTAWELFSKHFKPAEVNIKQQLVDTYWKK”, the “soluble on expression in E. coli” value is reported as “not soluble”.
As for “MSLEFGRELPGKRDPQARLKDYKELYLDFSATQIKNQAARCMNCGVPFCHSGCPLGNIIPEFNDAVYRNDWEEAAEILFSTNNFPEFTGRICPAPCEASCVLGINKPPVTIENIEKSIVETAFEKGILKPNPPKKRTGKTVAVVGSGPAGLAAAAQLNSAGHTVTVFERADQVGGLLRYGIPDFKLEKWVIDRRVKLMEEEGVIFKTNTNVGVTVKAKDIVKEFDAVVLTGGSTVGRDLPIPGRQFKGVHFAMEFLSQQNKRVANIKPEIDHTGEAYKNGDLLATAKNVVVIGGGDTGSDCVGTSNRHGAKSVLQFELMPKPPENKNETTPWPNWPMILRTSTSHEEGCDRLWSITTKEFIGDADGNLTGLKIAEMGWVTAPDSKLPKYQELPGTERVIPCELTLLAMGFLHPQHAGMLNELGVEYDERGNIKANGKYQTNVDKVFTAGDMRRGQSLVVWAISEGREAARNVDIFLMGTTSLEAKDHGMLDTVYAEGHHHHHH”, the entry is “soluble”; as for “MSLTNQVTYLFFHGMKQISEHLFTTEEQAIIARSKAEGSYMKAPNGQATNLNKKQWAQVRTRAFREWFGDWENNPDEASKVRDANGEPLVVYHGTPISRDQAADRSKFRIADDWEIQTINAPFHTFRGGAYNGLIFTSLTEEKARSIGETRSMSIPDSEDGREQWTTDSYVYDLFVNARQPFDVKNPNAVKDILDALEGQLTAYDFYLGMEVPVSRKEAEKILEGGNSWRVVETPSMQEIIRSRGYDAIHALDEGVQYMAVFAPNQLKASGKYLYSERNTGVFSPGNNDIRFREVHHGVPASFTGYRSMKTETVRNDNIPAVLAALREKLEDTEQEWQDRILDYIAENYPTQTTVSAQTRSPEGLKEREAMKKDKTLRKMKEEAVAALNAADEKVMEAFKKENGDILFREVKENDGGKSLVGLHNISEEKLLKALKLGGLANPSAAVIDIARQSHEGYGEISLILPSSMIDKRTGRNAGTFSGDAWTPVYPQIERQFSGDGSGRVRDAISRLPQEMQPNVRSAWNSYMDGRDEGSAFAYQFLYERGEAPEFRKIEPLFGEHLRNRISAIDALDDYDERNTALLEVYIEENFGGDQTKFKDYIETRKRVLQDKEGHHHHHH”, “not soluble”.
As for “MSLELENFQEYNDPVLYDKENRYTGDIPFLLKWAGKVDGTIVDLACGTGRATIPLASKGYKLMGVDVHKGMLEAAREKSSRLNLPIEWIKQDCTKLSLNLMSPFIYSVGNVFQHFLTNEEQDSFLTSVNKHLKESGIFIFDTRFPSKEELLQPNTEEYWKSYQDTDTGQKVDVYTISQYDPLTQIQHYTMIRKSVNAEGLAVNEKRTNIRLRYVFPKEMERLLSANGFEIIDVYQDWQETPLTRDSDQMIYVCKKSSEGHHHHHH”, the entry is “soluble”; as for “MGSDKIHHHHHHMSKIKVALLVDEYFGGAKTKYGGYGFLARHLVAKHLPDDQVDVDVLLKKDCGKVRLWPKCFMVDGIRVYKLAARAFDWVNNLFLRQKNYDVFLSIEMTTHSYRIFSKAPGKNKKLLFWIQDPRPTYEWDEIQTVKLFPEPSYWDAEIYDFVNQYARSGNVRFISQAKCLDQKARDLYRLPANTSINYLPNPIEIDETFDLDSFPKQNSIIFLGRIESVKRGWLFAEIAKAMPQCQFYMLGQAHRQADENNAVMSGYQAIPNLHFVGHVEGEQKNRFLKEAKVLVNTSIHEALPISFLEALSYGTLLVSCQNPDELASKFGVYTGKVLGDGFDKVELFVAGINQLLTNDDHRHQLAKDAIAYIKEVHSLSRFTGDIKHELLTLCASRNEPVKATGRTTTSTVQ”, “not soluble”; as for “TKDFSWRTSLNFAYNKNKIVDLQYKENLTSRGLSLAGMSGDYSNLWIIGQPIDINYNLMTLGVWQLDEAEEAAKYGCKPGQYKPLDLNEDGVIDDKDRVIDGKRTPDWTGGMTNTFTYKEFDLSFQAAFQAGARARNQFYVSYALENNNLNFNNLRKDYWTPENPTNASAQPSNMGTYRSKAGSWGNAKSEMSHTMFSSNFLKISYITLGYTFKPSVLEKMKLGNLRLYATVQNPFIFCAKDVVDPEQLNVSINTSDAMTRNVIFGINLSFK”, “not soluble”.
